Source: article PMC3979677, “Low-Resolution Structure of the Full-Length Barley (Hordeum vulgare) SGT1 Protein in Solution, Obtained Using Small-Angle X-Ray Scattering” (PLoS ONE, 2014)

What was measured:
[1] = biological target: the molecule itself; assay: SAXS; full-length SGT1 in solution, 3.46, 3.41 and 2.71 mg/mL in 50 mM Tris/HCl pH 7.5, 5 mM DTT with 0, 0.5 or 1 M NaCl, 10°C; SVD and MCR-ALS analysis; dimer to monomers
[2] = biological target: the molecule itself; assay: SAXS; TPR domain in solution, 2 mg/ml in 50 mM Tris HCl pH 7.5, 5 mM DTT with 0, 100, 200, 400, 600 or 800 mM KCl, 15°C; SVD and MCR-ALS analysis; dimer to monomers

| Protein | stoichiometry N [1] | stoichiometry N [2] |
| --- | --- | --- |
| full-length barley (Hordeum vulgare) SGT1 protein (natural protein, Hordeum vulgare (barley), UniProt Q8W516 1-373, looked up, SGT1 (suppressor of the G2 allele of skp1), Hordeum vulgare, full length cDNA; 373 amino acids in total; Cloned in pET151-D TOPO; His-TEV site cleaved with His-TEV protease (Ser219Val); also called barley SGT1; HvSgt1; source: E. coli BL21 DE3 Codon Plus, purified (HisTrap Ni-NTA, Superdex 200, TEV cleavage, HisTrap, MonoQ)) MAAAAASDLESKAKEAFVDDDFELAAELYTQAIEAGPATAELYADRAQAHIKLGSYTEAVADANKAIELDPSMHKAYLRKGSACIKLEEYQTAKAALEVGSSYASGDSRFTRLMKECDDRIAEEASQAPVKNAAAAVAPATSSGATTVVTEAEDQDGENMENAQPTVEVPSKPKYRHDYYNTPTEVVLTIFAKGVPADSVVVDFGEQMLSVSIELPGEEPYHFQPRLFSKIVPDKCKYTVLSTKVEIRLAKAEPVTWTSLDYTGKPKAPQKINVPAESAQRPSYPSSKSKKDWDKLEAEVKKQEKDEKLDGDAALNKFFREIYSDADEDMRRAMMKSFVESNGTVLSTNWKDVGKKTVEGSPPDGMELKKWEY | 2 |  |
| TPR domain from Hordeum vulgare SGT1 (6-124) (domain or fragment, Hordeum vulgare (barley), UniProt Q8W516 6-124, looked up, SGT1, Hordeum vulgare, tetratricopeptide repeats (TPR) domain, residues 6-124; Cloned in pETM11 (NcoI/EcoRI) from pET151-HvSgt1; his-tag cleaved with TEV protease; source: E. coli BL21(DE3) Codon Plus, purified (HisTrap, TEV cleavage, HisTrap, Superdex 200)) ASDLESKAKEAFVDDDFELAAELYTQAIEAGPATAELYADRAQAHIKLGSYTEAVADANKAIELDPSMHKAYLRKGSACIKLEEYQTAKAALEVGSSYASGDSRFTRLMKECDDRIAEE |  | 2 |
